In paper PMC4903074 (Molecular cell, 2015):
Blank lines part the entries; values can stand above or below the binder they belong to.

Experiments:
[1] = molecular target: T1, GST-RPN10 (residues 201–386), wild type (Arabidopsis thaliana, UniProt P55034 201-386); assay: pull-down
T1 sequence (looked up): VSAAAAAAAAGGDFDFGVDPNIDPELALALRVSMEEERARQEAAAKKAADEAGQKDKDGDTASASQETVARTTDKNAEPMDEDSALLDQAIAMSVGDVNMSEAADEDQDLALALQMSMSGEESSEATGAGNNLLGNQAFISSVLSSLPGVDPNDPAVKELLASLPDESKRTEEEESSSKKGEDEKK

[2] = molecular target: T1, GST-RPN10 (residues 201–386), wild type; assay: pull-down; remark: listed apart in the source

Kd [1]: ~5.6 µM
B1: His6-ATG8e (natural protein, Arabidopsis thaliana, UniProt Q8S926 1-118, looked up)
chain: MNKGSIFKMDNDFEKRKAEAGRIREKYPDRIPVIVEKAEKSEVPNIDKKKYLVPSDLTVGQFVYVIRKRIKLSAEKAIFIFVDNVLPPTGELMSSVYEDKKDEDGFLYITYSGENTFG

binding result [2]: binds
B2: His6-ATG8f (natural protein, Arabidopsis thaliana, UniProt Q8VYK7 1-117, looked up)
chain: MAKSSFKQEHDLEKRRAEAARIREKYPDRIPVIVEKAEKSDIPTIDKKKYLVPADLTVGQFVYVIRKRIKLSAEKAIFIFVDNVLPPAGALMSSVYEEKKDDDGFLYVTYSGENTFG
